Results published in US12171828B2, “Quil A fraction with low toxicity and use thereof” (Novavax AB, priority 2003, dated 2024).

Tested on: OVA
Test: OVA-specific serum antibody ELISA, QWT-iscoms with CT or MPL (Example 7)
Assay type: in vivo, NMRI mice
Conditions: 5 μg OVA without adjuvant
Procedure: Sera were collected 3 weeks after priming and 2 weeks after the booster injection.
Serum antibody determination, including total IgG, and subclasses IgG1 and IgG2a, was carried in out in ELISA as described in example 1.

B1: OVA alone: ovalbumin, weak model antigen, given without adjuvant (protein, UniProt P01012 2-386, looked up)
Ovalbumin: GSIGAASMEFCFDVFKELKVHHANENIFYCPIAIMSALAMVYLGAKDSTRTQINKVVRFDKLPGFGDSIEAQCGTSVNVHSSLRDILNQITKPNDVYSFSLASRLYAEERYPILPEYLQCVKELYRGGLEPINFQTAADQARELINSWVESQTNGIIRNVLQPSSVDSQTAMVLVNAIVFKGLWEKAFKDEDTQAMPFRVTEQESKPVQMMYQIGLFRVASMASEKMKILELPFASGTMSMLVLLPDEVSGLEQLESIINFEKLTEWTSSNVMEERKIKVYLPRMKMEEKYNLTSVLMAMGITDVFSSSANLSGISSAESLKISQAVHAAHAEINEAGREVVGSAEAGVDAASVSEEFRADHPFLFCIKHIATNAVLFFGRCVSP
serum IgG after booster: low serum levels of IgG
